The text below walks through data of the nanobody polyreactivity screen of Harvey et al. (2022).

This data set is described as follows: yeast display, Sf9 membrane polyspecificity reagent, FACS + sequencing; frameworks hold sequencing errors. The method, boiled down:
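Using colony PCR, genes from sorted yeast display clones were amplified, then sequenced on MiSeq at 2 × 250 and filtered by CDR length. The clones had been stained with 10% biotinylated, detergent-solubilized Sf9 membrane reagent for 1 hour at 4 °C and sorted by FACS into low and high (top ~1%) gates on anti-HA and streptavidin fluorescence. Polyreactivity labels come from the gate of origin.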
As to “QVQLVESGGGLVQAGGSLRLTCAASGPIFVLYAMGWYRQAPGKERELVAAISTSGGSTYYADSVKGRFTISRDNAKNTVYLQMNSLKPEDTAVYYCAADRSARFLFIQYYPYGMDYWGQGTQVTVSS”, the “polyreactivity (PSR sort gate)” value is “high polyreactivity”.
The value for “QVQLVESGGGLVQAGGSLRLTCAASGRIFSSYAMGWYRQAPGKERELVAAITGRDGSTYYADSVKGRFTISRDNAKNTVYLQMNSLKPEETAVYYCAASRFYFPLTFGGYPKLASYDYWGQGTQVTVSS” was “low polyreactivity”; that for “QVQLVESGGGLVQAGGSLRLTCAASGRIFSYYDMGWYRKAPGKERELVARISYSGDSTYYADSVKGRFTISRDNAKNTVYLQMNSLKPEDTAVYYCAAEVDSGYSEYYWGQGTQVTVSS” was “low polyreactivity”.
Then “QVQLVESGGGLVQAGGSLRLTCAASGRIFTSYAMGWYRQAPGKERELVATITGSTASTYYADSVKGRFTISRDNAKYTVYLQMNSLKPEDTAVYYCAARSVGKRGYDYWGQCTQVTVSS”, with “high polyreactivity”; and “QVQLVESGGGLVQAGGSLRLTCAASGRIFTTYAMGWYRQAPGKERELVAAISRSGGSTYYADSVKGRFTISRDNAKNTVYLQMNSMKPEDTAVYYCAAVPTSNSFRSSFYYWGQGTQVTVSS”, with “high polyreactivity”.
The value for “QVQLVESGGGLVQAGGSLRLTCAASGRIFYQYAMGWYRQAPGKEMDLVASITTSGGNTYYADSVKGRFTISRDNAKNTVYLQMNSLKPEDTAVYYCAARFNWRQWLYEYWGQGTQVTVSS” was “low polyreactivity”.
Take “QVQLVESGGGLVQAGGSLRLTCAASGRIFYYYAMAWYRQAPGKEMELVAAIRRGGFTYYADSVKGRFTISRDNAKNTVYLQMYSLKQEDTAVYYCAAGVSKPNGYYYLRGYERGYWGQGTQVTVSS”: the “polyreactivity (PSR sort gate)” value is “high polyreactivity”.
The value for “QVQLVESGGGLVQAGGSLRLTCAASGRILSHYAMVWYIQAPGKERELVATINSGGATYYADSVKGRFTISRDNAKYTVYFQMNSLKPEDTAVYYCAVDYAVSYAGWVLRYDYWGQGTQVTVSS” was “low polyreactivity”; that for “QVQLVESGGGLVQAGGSLRLTCAASGRNFQVYAMGWYRQAPGKERELVAGITRAGSTYYADSVKGRFTISRDNAKNTVYLQLNSLKPEDTAVYYCAASRWHGYNYWGQGTQVTVSS” was “high polyreactivity”; that for “QVQLVESGGGLVQAGGSLRLTCAASGRTFAINVMGWYIQAPGKERELVASIRGRGGRTNYADSVKGRFTISRDNAKNTVYLQMNRLKPEDTAVYYCAASQWWRYDYWGQGTQVTVSS” was “high polyreactivity”.
Then “QVQLVESGGGLVQAGGSLRLTCAASGRTFAYNAMGWYRQAPGKERELVAAITSSGTSTYYADSVKGRFTISRDNAKNTVYLQINCLKPEDTAVYYCAGRQSQKYGLFYYWGQGTQVTVSS”, with “high polyreactivity”.
Take “QVQLVESGGGLVQAGGSLRLTCAASGRTFEQNAMGWNRPAPGKERELVASITSVGSTDYADSVKGRFTISRDNAKNTVYLQMNSLKPEDTAVYYCAKTLGSQNYDFDYWGQGTQVTVSS”: the “polyreactivity (PSR sort gate)” value was “low polyreactivity”.
Take “QVQLVESGGGLVQAGGSLRLTCAASGRTFGINAMGWYRQAPGKERELVAAIDSIDGTTYYADSVKGHFTISRDNAKNTVYLPMNRLKPAATAVYYCAAEFISSYDYWGQGTQVTVSS”: the “polyreactivity (PSR sort gate)” value is listed as “high polyreactivity”.
Then “QVQLVESGGGLVQAGGSLRLTCAASGRTFRNYAMGWYRQAPGKEREMVAAISRSGGITYYADSVKGRFTISRDNAKNTVYLQMNSLKPEDTAVYYCAARHSYQGPGTYPMYYWGQGTQVTVTS”, with “high polyreactivity”; and “QVQLVESGGGLVQAGGSLRLTCAASGRTFSVNAMGWYRQAPGKEREFVAAIRTSGGSTSYADSVKVRFTISRDNAKYTVFLQMSSLKPEDTAVYYCAADYGGTSYVRGTVGRKYDYWGQGTQVTVSS”, with “high polyreactivity”.
Then “QVQLVESGGGLVQAGGSLRLTCAASGRTFSYNAMGWYRQAPGKERELVAAISYDGGRTYYADSVKGRFTISRDNAKNSVYLQMNSLKPEDTAVYFCAAYPYRCPHPWTIGDYWGQGTQVTVSS”, with “low polyreactivity”; and “QVQLVESGGGLVQAGGSLRLTCAASGRTFTTYAMGWYRQAPGKERELFAAISGSGGSTYYADSVKGRFTISRDNAKNTVYLQMNSLKPEGTAVYYCATAYYYHGGYYYPYDDYWGQGTQVTVSS”, with “low polyreactivity”.
The value for “QVQLVESGGGLVQAGGSLRLTCAASGRTLRYNAMGWYRPAPVKERELVAAITSTGSTNYADSVKGRFTISRDNAKLTVYLHMNSLTAEDTAVYYCAKTSRYYWYGYDYWGQGTQVTVSS” was “high polyreactivity”; that for “QVQLVESGGGLVQAGGSLRLTCAASGSIFGNNAMGWYRQATGKERELVAVITDGGNTYYADSVKGRFTISRDNAKNTVYLQMNSLKPEDTAVYYCNAEWWGDSVYWGQGTQVTVSS” was “low polyreactivity”.
As to “QVQLVESGGGLVQAGGSLRLTCAASGSIFGYAMGWYRQEPGKERELVAAISFSGVSTYYADSVKGRFTISRDNAKNTVYLLMNSLKPEDTAVYDCNAYSDGDEDYWGQGTQVTVSS”, the “polyreactivity (PSR sort gate)” value was “low polyreactivity”.
Then “QVQLVESGGGLVQAGGSLRLTCAASGSIFSFYAMGWYRQAPGKERELVAAITQSDSSTYYADSVKGRFTISRDNAKNTVYLQMNSLKPVDTAVYYCAKDYYAYSDYDYWGQGTQVTVSS”, with “low polyreactivity”.
Consider “QVQLVESGGGLVQAGGSLRLTCAASGSIFSHYAMGWYRQATGKERELVAAITYGGGSTYYADSVKGRFTISRDIAMNTVYLQMNSLKPDDTAVYYCAKEFKYWGYPYDYWGQGTQVTVSS”, for which the “polyreactivity (PSR sort gate)” value is given as “low polyreactivity”.
Then “QVQLVESGGGLVQAGGSLRLTCAASGSIFSLNVMGRYRQAPGKERELVATIRGRGTSTYYADSVKGRFTISRYNAKINVYLHMNSLKPEDTAVYYWAARGHGAYGYWGQGTQVTVSS”, with “low polyreactivity”; and “QVQLVESGGGLVQAGGSLRLTCAASGSIFSYNVMGWYRQAPGKERELVAVITGSGGSTYYADSVKGRFTISRDNAKNTVYLQMYSLKPEDTAVYYCAATYSGWQWYETYYYWGQGTQVTVSS”, with “low polyreactivity”; and “QVQLVESGGGLVQAGGSLRLTCAASGSIFVNNAMGWYRQAPGKEMELVAAIRRSGGNTYYADSVKGRFTISRDNAKNTVYLQMNSLIPEDTAVYYCNVVRRADSIRAKSRDYWGQGTQVTVSS”, with “high polyreactivity”.
The value for “QVQLVESGGGLVQAGGSLRLTCAASGSIFVQYAMGWYRQAPGKERELVATISSSGGSTYYADSVKGRCTISRDNAKNTVYLQMNSLKPEDTAVYYFAADWTLDRSYGYYADDYWGQGTQVTVSS” was “low polyreactivity”.
Turning to “QVQLVESGGGLVQAGGSLRLTCAASGSIFYWYAMGWYRQAPGKERELVAAISSSGSTNYADSVKGRFTISRDNAKNTVYLQMNSLKPEDTAVYYCGAYRTGYNGWGYGYWGQGTQVTVSS”, the “polyreactivity (PSR sort gate)” value was “high polyreactivity”.
For “QVQLVESGGGLVQAGGSLRLTCAASGSIIALYAMGWYRQAPGKERELVATISSCVSTYYADSVKGRFTISRDNAKNTVYLQLNSLKPEDTAVYYCAADKTVRSSNYDYWGQCTQVTVSS”, the “polyreactivity (PSR sort gate)” value is on record as “low polyreactivity”.
Then “QVQLVESGGGLVQAGGSLRLTCAASGSILIYNAMGWYRQAPGKQRELVADITNGGSTNYADSVKGRFTISRDNAKNTVYLQMHSLKPDDTAVYYCAKDAYYWWGPDYDYWGQGTQVTVSS”, with “low polyreactivity”; and “QVQLVESGGGLVQAGGSLRLTCAASGSISGLYTMGWYRQAPGKERELVAAIRWTTGTTYYADSVKGRFTISRDNAKNTVYLQMNSLKPEDTAVYYCNVVTWYYVFRPWEYDYWGQGTQVTVSS”, with “low polyreactivity”.
Then “QVQLVESGGGLVQAGGSLRLTCAASGSTFAGNAMGWYRQATGKERELVAAIDSSTGSTYYADSVKGRFTISRDNAKNTVYLQMNSLKPEDSAVYYCNKTSFLVKLDYWGQGTQVTVSS”, with “low polyreactivity”.
The value for “QVQLVESGGGLVQAGGSLRLTCAASGSTFFPNDMGWYRQAPGKERELVDAISWRGGNTYADSVKGRFTISRDNAKNTVLLQMNSLKPEDTAVYYCAADVEWTSRGSYYRYYYWGQGTQVTVSS” was “low polyreactivity”; that for “QVQLVESGGGLVQAGGSLRLTCAASGSTFLFYARGWYRQAPGKERELVAAIRGRGGSTYYADSVKGRFTISRDNAKNTVYLQMNSLKPEDTAVYYCAALSRFPVNRYSDLDLYYWGEGTQVTVSS” was “high polyreactivity”; that for “QVQLVESGGGLVQAGGSLRLTCAASGSTFRYYVMGWYRQAPGKERELVAGISYRGGTTYYADSVKGRFTISRDNAKNTVYLQMNSLKPEDTAVYYCNAETAAAQASYDRLYVLLDYWGQGTQVTVSS” was “low polyreactivity”.
With “QVQLVESGGGLVQAGGSLRLTCAASGSTFYIYAMGWYRQAPGKERELVAAISQGGGSTSYADSVKGRFTISRDYAKNTVYLQMNSLKPEDTAVYYCAARRASRVRGKEGGYWGQGSQVTVSS”, the “polyreactivity (PSR sort gate)” value is listed as “high polyreactivity”.
Then “QVQLVESGGGLVQAGGSLRLTCAASGSTFYIYAMGWYRQAPGKERELVARISGSGGSTYYADSVKGRFTISRDNAKNTVYLQMNSLKPEDTAVYYCAADDIYKYYQYYAFPYYRYDYWGQGTQVTVSS”, with “low polyreactivity”.
For the sequence “QVQLVESGGGLVQAGGSLRLTCAASGSTFYLNAMGWYRQATGKERELVAAITVSGGSTYYADSVKGRFTISRDNAKNTVYLQMNSLKPVDTAVYYCARELLSPTYQRWYYYWGQGTQVTVSS”, the “polyreactivity (PSR sort gate)” value was “low polyreactivity”.
Consider “QVQLVESGGGLVQAGGSLRLTCAASGSTFYTYAMGWYRQAPGNERELVAALSYGGGITYYADSVKGRFTISRDNEKNTVYIQMNSLKPEDTAVYYCAAVNGWQRYEFWGQGTQVTVSS”, for which the “polyreactivity (PSR sort gate)” value was “high polyreactivity”.
Then “QVQLVESGGGLVQAGGSLRLTCAASGSTIVRNAMGWYRQAPGKEREFVAAIDWRGGSTSYADSVKGRFTISRDNAKNTVYLQMHSLKPADTAVYYCAAARRARELRSGQGSTYGNEYWGLGTQVTVSS”, with “high polyreactivity”.
Then “QVQLVESGGGLVQAGGSLRLTCAASGSTSYSNAMGWYRQAPGKERELVAAINRRGDSTYYADSVKGRFTISRDNAKNTVYLQMNSLKPEDTAVYYCNKVVRVYLGRFQYYSWGQGTQVTVSS”, with “high polyreactivity”.
